Legend:
[1] = target: T1, GDF15-HIS (ACROBiosystems, CAT #: GD5-H5149) (human, UniProt Q99988 197-308); experiment: ELISA, GDF15-HIS coated
T1 construct: Bought protein; also called GDF15 (ACROBiosystems, GD5-H5149); human GDF15; not shown: His tag
T1 sequence (looked up): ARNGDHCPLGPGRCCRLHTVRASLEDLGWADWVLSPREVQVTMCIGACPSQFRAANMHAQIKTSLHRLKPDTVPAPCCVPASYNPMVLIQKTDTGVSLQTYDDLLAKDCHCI
Experimental: The experiment was performed as detailed in Example 2, except that the coating protein was GDF15-HIS (ACROBiosystems, CAT #: GD5-H5149), and the antibodies to be tested (the humanized antibodies), negative control antibody (hIgG1), positive control antibodies Ponsegromab (Pfizer; Drug Bank: D11909) and AV380-hlgG1 (the heavy chain and light chain constant regions of AV380-mIgG1 were replaced with the constant regions of human IgG, i.e., SEQ ID NO. 5 and SEQ ID NO. 6) were added to each well of the coated plate.

[2] = target: T1, GDF15-HIS (ACROBiosystems, CAT #: …); experiment: ELISA in stability test, antibody before treatment; coated antigen not named; before treatment (unstressed antibody, 10 mg/mL)
[3] = target: T1, GDF15-HIS (ACROBiosystems, CAT #: …); experiment: ELISA on human GDF15, antibody after 2 weeks at 37 °C in PBS; PBS, 37 C for 2 weeks (not plasma)
Experimental: (§1) […] of the antibodies to be tested (final concentration 1 mg/ml) were added to 200 μl of plasma and PBS, respectively, tightly sealed and placed at 37° C. for 2 weeks. The change of protein binding activity was detected by ELISA.

GDF15-mFC protein = target: T2, GDF15-mFC protein (human; mouse, UniProt Q99988 197-308); experiment: competitive ELISA, GFRAL-HIS coated (competitor), GDF15-mFc 0.3 µg/ml pre-incubated with antibody
T2 construct: extracellular domain;domain: IgG2a-FC; also called GDF15-mFc fusion protein
T2 sequence (looked up): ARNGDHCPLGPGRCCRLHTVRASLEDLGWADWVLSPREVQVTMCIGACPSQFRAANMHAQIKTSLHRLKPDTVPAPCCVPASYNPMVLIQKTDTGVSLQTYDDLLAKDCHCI
Experimental: GFRAL-HIS protein (ACROBiosystems, GFA-H52H3) was dissolved in PBS at a concentration of […] and was used to coat ELISA 96-well plate one day before blocking the plate with 2% BSA in PBS. 53E5 (hz), and control antibodies Ponsegromab and AV380-hIgG1 were 3.16-fold diluted for 10 gradients with a starting concentration of 20 μg/ml. At the same time, GDF15-mFc protein was added at a final concentration of 0.3 μg/ml. After incubation at room temperature for 1 hour, the mixtures were added to 96-well plate coated with GFRAL-HIS. After incubated at room temperature for 1 hour, the plate was washed and then HRP-anti-mouse IgG was added to the plate. After incubation at room temperature for 1 hour, the HRP enzyme activity (OD450) was detected. The HRP enzyme activity represents the relative amount of GDF15-mFc protein bound to GFRAL. The OD450 values and antibody concentrations were plotted. The dose-effect curve was fitted using the log (agonist) vs. response-variable slope (four-parameter) Logistic model to calculate IC50.

[4] = target: T1, GDF15-HIS (ACROBiosystems, CAT #: …); experiment: BLI (ForteBio Octet), antibody immobilised, GDF15 200-6.25 nM
[5] = target: T1, GDF15-HIS (ACROBiosystems, CAT #: …); experiment: ELISA on human GDF15, antibody after 2 weeks at 37 °C in plasma
Experimental: as §1

GDF1 (R&D, 6937-GD-010) = target: T3, GDF1 (R&D, 6937-GD-010) (UniProt P27539 254-372); experiment: ELISA, GDF1 coated at 1 µg/ml, HRP-anti-human IgG
T3 sequence (looked up): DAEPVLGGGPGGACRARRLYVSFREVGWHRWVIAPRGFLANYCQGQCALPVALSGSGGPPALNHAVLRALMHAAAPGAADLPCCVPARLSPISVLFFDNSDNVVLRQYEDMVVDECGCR
Experimental: GDF15 (ACROBiosystems, GDS-HS149), GDF1 (R&D, 6937-GD-010), and GDF3 (R&D, 5754-G3-010) proteins were dissolved in PBS at a concentration of 1 μg/ml and were used to coat ELISA 96-well plate. On the next day, the 96-well plate was blocked with 2% BSA in PBS for 1 hour. After removing the blocking solution, GDF15 antibody 53E5 (hz), control antibody Ponsegromab and irrelevant hIgG1 were added at 4 μg/ml. After incubation at room temperature for 1 hour, the plate was washed, and then HRP-anti-human IgG was added. After incubation at room temperature for 1 hour, the HRP enzyme activity signal (OD450) was detected. The OD450 value is the relative signal of the antibody binding amount.

- EC50 [1]: 0.0833 µg/mL
- OD450.Max [1]: 1.05 OD450
- EC50 [2]: 0.0588 µg/mL
- EC50 [3]: 0.127 µg/mL
- IC50 (GDF15-mFC protein): 0.253 µg/mL
- Kd [4]: 0.293 nM
- koff [4]: 0.000271 s⁻¹
- kon [4]: 923000 M⁻¹ s⁻¹
- EC50 [5]: 0.0372 µg/mL
- binding result (GDF1 (R&D, 6937-GD-010)): no binding (tested: 4 µg/ml)
B1: 53E5(hz) (antibody, human IgG1, kappa, V domains shown)
VH: QVQLQESGPGLVKPSETLSLTCTFSGFSLSTSGMGVGWIRQPPGKGLEWLAHILWDDVKRYNPALKSRLTISKDSSKSQISLKLSSVTAADTAVYYCVQMAWDWFAYWGQGTTVTVSS
VL: DIQMTQSPSSLSASVGDRVTITCKASQNVDTNVAWYQQKPGQSPKALIYSASYRSSGVPSRFSGSGSGTDFTLTISSLQPEDFATYYCQQYHSYPTFGQGTRLEIKR
notes: also called S3E5 (hz); humanized antibody 53E5

Reference: patent US20250092124A1 (YUNNAN BAIYAO GROUP, published 2025)
